# Experiment: yeast display, Sf9 membrane polyspecificity reagent, FACS + sequencing; frameworks hold sequencing errors
# Outline: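 A synthetic nanobody library was expressed on Saccharomyces cerevisiae BJ5465 by galactose induction for 36–48 hours. The library was stained for 1 hour at 4 °C with 10% biotinylated, detergent-solubilized Sf9 membrane reagent and enriched with streptavidin microbeads before FACS. Low and high (top ~1%) gates were set on anti-HA fluorescence for expression and streptavidin fluorescence for reagent binding, and each polyreactivity label reflects the gate of origin.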
row,Sequence,polyreactivity (PSR sort gate)
1,QVQLVESGGGLVQAGGSHRLSCAASGIIFSGNAMGWYRQAPGKERELVAAITRGGRTYYADSVKGRFTISRDNAKNTVYLQMNSLKPEDTAVYYCNKRYRYKYDYWGQGTQVTVSS,high polyreactivity
2,QVQLVESGGGVVQAGGSLRLSCAASGRIFRYYTMGWYRQAPGKERELVAAITSSGGSTYYADSVKGRFTISRDNAKNTVYLQMNSLKPEDTAVYYCATRSYVFAWEFNYWGQGSQVTVSS,high polyreactivity
3,QVQLVESGGGLVQAGGSLRLSCAASGRIFYYYAMGWYRQAPGKEREFVAAISQRGGSTSYADSVKGRFTISRDNAKNTVYLQMNSLKPEDTAVYYCAAEYYLRVSGRTYVTSHDYWGQGTQVTVSS,high polyreactivity
4,QVQLVESGGGLVQAGGSLRLSCAASGSNLYKYAMGWYRPAPGKERELVASITWSDGNTNYADSVKGRFTISRHNAKNTVYLQMNSLKPEDTAVYYCAADWRYILRGDDYWGQGTQVTVSS,low polyreactivity
5,QVQLVESGGGLVQAGGSLGLTCAASGSIFYGYAMAWYRPAPGKERELVAAISSSGGNTYYADSVKGRFTISRDNAKNTVYLQMNSLKPEDTAVYYCNKVYYQVKYDYWGQGTQVSVSS,low polyreactivity
6,QDQLVESGRGLDQAGGSLRLICAASGRIFDRYALGWYRQAPGTERELVAAISWNTGSTYYADSVKGRFTISRDNAKNTVYLQMNSLKPEDTAVYYCAAAVRPYKRQDDYWGQGTQVTVSS,high polyreactivity
7,QVQLVESGGGLVQAGGSLRLSCAASGFIFRWYAMGWYRQAPGKERELVAAISSSSGSTYYADSVKGRFTISRDNAKNTVYLQMNSLKPEDTAVYYCAAESNRRFEGEYWGQGTQVTVSS,high polyreactivity
8,QVQLVESGGGLVQAGGSLRLSCAASGSIYWLYAMGWYRQAPGKERELVAAITWSGGRTYYADSVKGRFTISRDNAKYNVYLQMNSLKPEDTAVYYCARRQRPGYSNPARGGKYDYWGQGTQVTVSS,low polyreactivity
9,QVQLVESGGGLVQAGGSLRLSCAASGGIFSWYAMGWYRQAPGKERELVAAISWSGSRTYYADSVKGRFTISRDNAKNTVYLQMNCLKPEDTAVYYCAADYIFRRYPVGGIYDYDYWGQGTQVTVSS,high polyreactivity
10,QVQLVESGRGLVQAGGSLRLSCAVSGSIGVYAMGWYRQAPGKERELVAAISKRGGSTRYADSVKGRFTISRDNAKNTVYLQMNSLKPEDTAVYYCAATGSVTGPRYAYDYWGQGTQVTVSS,high polyreactivity
11,QFQLVESGVGLVQAGGSLRLSCAASGRIFTNYAMGWYRQAPGKERELVASINYSGATRNYADSVKGRFTISRDNAKNTVYLQMNSLKPEDTAVYYCNADIYPDLYGSTNYDFNYWGQGTQVTVSS,low polyreactivity
12,QVQLVESGGGIDQAGGSLRLSCAASGGTFFSNAMGWYRQAPGKERELVAGITSGGRTYYADSVKGRFTISRDNAKNTVYLQMNSLKPEDTAVDYCATRSRRTYYYYGAEGYWGQGTQVTVSS,high polyreactivity
13,QVQLVESGGGLVQAGGSLRLSCAASGNIFIRYAMGWYRQAPGKERELVAAISQSGGGTSYADSVKGRFRISRDNAKNTVYLQMNSLKPEDTAVSYCNVEKVGHFNSYGYDYWGQGTQVTVSS,low polyreactivity
14,QVQLVESGGGLVQAGGSLRLSCAASGRIFSFYAMGWYRQAPGKERELVATISDGGATTYYADSVKGRFTISRDNAKNTVYLQMNSLKPEDTAVYYCNARRESYYQRYRVDYWGQGTQVTVSS,low polyreactivity
15,QFQLVESGGGLVQAGGSLRLSCAASGRIFYYYAMGWDRQAPGKERELVASINSVGTTTYADSVKGRFTISRDNAKNTVYLQMNSLKPEDTAVYYCARDTGSIYYDGYEYDYWGQGTQVTVSS,low polyreactivity
16,QVQLVESGGGLVQAGGSHRLSCAASGGTFNTNAMGWYRQAPGKERELVATIRGGVITTYADSVKGRFTISRDNAKNTVYLQMNSLKPEDTAVYYFNKDNAPYAVSSIFGARDYWGQGTQVTVSS,low polyreactivity
17,QVQLVESGGGIVPAGGSLRLSCAASGRSFYNYAMGWYRQAPGKERELVASISGIGGTTYYADSVKGRFTISRDNAKNTVYFQMNSLKPEDTAVYYCAARLYNWRRYGYWGQRTQVTVSS,high polyreactivity
18,QVQLEESGGGLVQAGGSLRLSCAASGSIYYLNAMGWYRQAPGKERELVAAINSGGTTNYADSVKGRFTISRDNAKYTVYLQMNSLKPEDTAVYYCATDGYYYYYRVYKFDYWGQGTQVTVSS,low polyreactivity
19,QVQHVESGGGLVQAGGSLRLSCAASGRIFVYYAMGWYRQEPGKERELVATISSGGSTYYADSVKGRFTISRDNAKNTVYLHMNSLKPEDTAVYYCNARDWYLWSTYRSWYDYWGEGTQVTVSS,low polyreactivity
20,QVQLVESGGGIVQAGGSLRLSSAASGSTFVYNAMGSYRQAPGKERELVASITRSGSSTYYADSVKGRFTISRDNAKNTVYLQMNSLKPEDSAVYYCAVRYYVLSYYRYYYWGQGTQVTVSS,low polyreactivity
21,QVQLVESGGGLVQAGGSLRLSCAASGLTFDKNVMGWYRQAHGKERELVAAISRSGGTTYYADSVKGRFTISRDNAKYTVYLQMNSLKPEDTAVYYCAKRAWTGYGYYYWGQGTQVTVSS,high polyreactivity
22,QVQLVESGGGLVQAGGSLRLSCAASGSILDIYAMGWYRQAPGKERELVAGISTSGGSTYYADSVKGRFTISRDNAKNTVYLQMNSLNPEDTAVYYCAKDYGYQGLTRTLYCAYLEYDYWGQGTQVTVSS,low polyreactivity

row,Sequence,polyreactivity (PSR sort gate)
1,QVQLVESGGGLVQAGGSLRLSCAASGSIFQLNAMGWYRQAPGKERELVAAITWSGDSTYYADSVKGRFTISRDNAKNTVSLQMNSRKPEDTAVYYCAADVLTTPPPREFEYWGQGTQVTVSS,high polyreactivity
2,QVQLVESGGGLVQAGGSLRLSCAASGSTFSNYAMGWYRQAPGKERELVAGIDWSGGSTYYADSVKGRFTISRDNAKNTVYLQMNSLKPEDTAVYYCAKRVWYHGRKLRGYYWGQGTQVTVSS,low polyreactivity
3,QVQLVESGGGLVQAGGSLRLSCAASGSTFWYYAMGWYRQAPGKERELVAAITSSGSTYYADSVKGRFTISRDNAKNTVYLQMNSLKPEDTAVYYCAAEQWYGYASYDYWGQVTQVTVSS,high polyreactivity
4,QVQLVESGGGLVQAGGSLRLSGAASGRTFGYYAMGWYRQAPGKERELVAAISRGGSTYYADSVKGRFTISRDNAKNTVYLQMNSPKPEDTAVYYCAADYWGYGPEMGYWGQGTQVTVSS,low polyreactivity
5,QVQLVESAGGLVQAGGSLSLSCAASGRTFSYYAMGWYRHARGKERELVAAISRRGGSTYYADSVKGRLTISRDNAKNTVYLQMISLKPEDTAVDYCNARGRSTVGGGFYYWGLGTQVTVSS,high polyreactivity
6,QVQLVESGGGLVQAGGSLRLSCSASGSTFRQYAMGWYRQAPGKERELVAAITWRGDNTYYADSVKGRFTISRDNAKNTVYLQMNSLKPEDTADYYCGARWSYRLYWGYGYWGQGTQVTVSS,low polyreactivity
7,QDQHVESGGGLVQAGGSLRLSSAASGFTFKGNAMGWYRQGPGKVMELVATITQSAGSTYYADSVKGRFSISRDNAKNTVYLQMNSLKPEDTGVYFCNADPITLYYYSWYNYWGQGTQVTVSS,low polyreactivity
8,QVQLVESGGGLVQAGGSLRLSCAASGFIFTYYAMGWYRQAPGKERELVAAISSRGTSTYYADSVKGRFTISRDNAKNTVYLQMNSLKPEDTAVYYCAAGKPKIPDDDYWGQGTQVTVSS,high polyreactivity
9,QVQLVESGGGLVQAGGSLRLSCAASGSIYWNTMGWYRQAPGKERELVAGISSSGDSTYYADSVKGRFTISRDNAKNTVYLQMNSLKPEDTAVYYCAARTRRFRYYYWGQGTQVTVSS,high polyreactivity
10,QVQLVESGGGLDQAGGSLRLSCAASGLTFGGNAMGWYRQAPGKERELVAAISWSDDTTDYADSVKGRFTISRDNAKNTVYLQMNSLKPEDTAVYYCAARLPFEHVDYWGQGTQVTVSS,low polyreactivity
11,QVQLVESGGGLVQAGGSLRLSCAASGRIFHWYAMGWYRQAPGKERELVATANTSYADSVKGRFTISRDNAKNTVYLQMNSLKPEDTAVYYCATVGPRGRSLGDYWGQGTQVTVSS,low polyreactivity
12,QVQLVESGGGLVQAGGSLRLSCAASGRTSPVYAMGWYRQAPGKERELVAAIRGGARTYYADSEKGRFTISRDNAKNTVYLQMNSLKPEDTAVYYCATGSRYRLGPGDSWGQGTQGTVSS,high polyreactivity
13,QVQLVESGGGLVQAGGSLRLSCAASGLTFPSNAMGWYRQAPGKERELVAAITSVGITYYADSVKGRFTISRDNAKNTVYLQMNSLKPEDTAVYYCNAPPGGGWYARDDNWGQGTQVTVSS,low polyreactivity
14,KVQLVESGRALVQAGGSLRLSCAASGSTFGNNAMGWNRPAPGKERELVATIDDTTVSTNYADSVKGRFTISRDNAKNTVYLQMTCLKPEDTAVYYCSADDVDGSPYDYWGQGTQGTVSS,low polyreactivity
15,QVQLVESGGGLVQAGGSLRLRCAASGSIFKYYAMGWYRQAPGTERELVAAITWSGTRTYYADSVKGRFTISRDNAKNTVYVQMNSLKPEDTAVYYCNAPRYLYSAGRFNYWGQGTQVTVSS,high polyreactivity
16,QVQLVESGGGLVQAGGSLRLSCAASGSTFYYYAMGWYRQAPGKEREFVASISSRGTSTYYADSVKGPFTISRDNAKNTVYLQMNSLKPEDTAVYYCAARGWGPTRAYDYWGQGTQVTVSS,high polyreactivity
17,QVQLVESGGGLVQAGGTLRLSCAASGSTFRRYAMGWYRHAPVKERELVAAISGRGGSTSYADSVKGRFTISRDNAKNTVYLQMNSLKPEDTAVYYCAADDKYFYPGNGYWGQGTQVTVSS,high polyreactivity
18,QVQLVESGGGLVQAGGSLRLSCAASGRIFVRYAMGWYRQAPGKERELVAAISKGGSSTYYADSVKGRFTISRDNAKNTVYLQMNSLKPEDTAVYYCAARVHGTGTLKYPNYYWGQGTQVTVSS,high polyreactivity
19,QVQLVESGGGLVQAGGSLRLSCAASGSIFSPYAMGWYRQAPGKERELVAAISFRASTTYYADSVKGRFTISRDNAKNTVYLQMNSLKPEDTAVYYCAASPLYSWFWGLYDYWGQGTQVTVSS,low polyreactivity
20,QVQHVESGGGLVQAAGSLRLSCAASGRIFYRNAMGWSRQAPGKERELVAAISKSGGSTYYSDSVKGRFTISRDNAKNTVYLQMNSLKPEDTAVYYCAAGTRLSDGYYWGQGTQVTVSS,high polyreactivity
21,QVQLVESGGGLVQAGGSLRLSCAASGIIFWYYAMGWYRQAPGKERELVAAISQSGGSTYYADSVKGRFTISRDNAKNTVYLQMNSMKPEDTAVDYCAAKPFYWSLEYDYRGQGTQVTVSS,high polyreactivity

# From the nanobody polyreactivity screen of Harvey et al. (2022)
